Laboratory results: patent publication US20150246136A1 (Bayer, published 2015)
Several values for one entry are separate records, joined by “and”; a condition that tells them apart may be missing. Equal entries are not always repeated.

Experiments:
Carboanhydrase IX [1] = biological target: T1, Carboanhydrase IX (Homo sapiens, UniProt Q16790 38-459); assay: cell-based or functional assay
Carboanhydrase IX [2] = biological target: T1, Carboanhydrase IX; assay: cell-based or functional assay; remark: listed apart in the source

| EC50 (nM) HT29 (Carboanhydrase IX [1]) | MIAPaCa 2/CA9+ IC50 (Carboanhydrase IX [2]) [nM] | EC50 (nM) SNU-5 (Carboanhydrase IX [1]) | Binder |
| --- | --- | --- | --- |
| 1.7 nM | 1.2 | – | Example 281 (antibody, human IgG1, kappa, V domains shown, linker-toxophore on cysteine S) VH: QVELVESGGGLVQPGGSLRLSCAASGFTFSSYGMSWVRQAPGKGLEWVSGISSLGSTTYYADSVKGRFTISRDNSKNTLYLQMNSLRAEDTAVYYCARTGSPGTFMHGDHWGQGTLVTVSS VL: DIQMTQSPSSLSASVGDRVTITCRASQDINNYLSWYQQKPGKAPKLLIYGASNLQSGVPSRFSGSGSGTDFTLTISSLQPEDFAVYYCQQYYGRPTTFGQGTKVEIKR |
| < 0.01 nM | 0.05 | – | Example 282 (antibody, human IgG1, kappa, V domains shown, linker-toxophore on cysteine S) VH: QVELVESGGGLVQPGGSLRLSCAASGFTFSSYGMSWVRQAPGKGLEWVSGISSLGSTTYYADSVKGRFTISRDNSKNTLYLQMNSLRAEDTAVYYCARTGSPGTFMHGDHWGQGTLVTVSS VL: DIQMTQSPSSLSASVGDRVTITCRASQDINNYLSWYQQKPGKAPKLLIYGASNLQSGVPSRFSGSGSGTDFTLTISSLQPEDFAVYYCQQYYGRPTTFGQGTKVEIKR |
| 0.3 nM | 0.4 | – | Example 283 (antibody, human IgG1, kappa, V domains shown, linker-toxophore on cysteine S) VH: QVELVESGGGLVQPGGSLRLSCAASGFTFSSYGMSWVRQAPGKGLEWVSGISSLGSTTYYADSVKGRFTISRDNSKNTLYLQMNSLRAEDTAVYYCARTGSPGTFMHGDHWGQGTLVTVSS VL: DIQMTQSPSSLSASVGDRVTITCRASQDINNYLSWYQQKPGKAPKLLIYGASNLQSGVPSRFSGSGSGTDFTLTISSLQPEDFAVYYCQQYYGRPTTFGQGTKVEIKR |
| 0.7 nM and 1.6 nM | 0.9 | 3 nM and 2.2 nM | Example 284 (antibody, human IgG1, kappa, V domains shown, linker-toxophore on cysteine S) VH: QVELVESGGGLVQPGGSLRLSCAASGFTFSSYGMSWVRQAPGKGLEWVSGISSLGSTTYYADSVKGRFTISRDNSKNTLYLQMNSLRAEDTAVYYCARTGSPGTFMHGDHWGQGTLVTVSS VL: DIQMTQSPSSLSASVGDRVTITCRASQDINNYLSWYQQKPGKAPKLLIYGASNLQSGVPSRFSGSGSGTDFTLTISSLQPEDFAVYYCQQYYGRPTTFGQGTKVEIKR |
| 0.5 nM | 0.6 | – | Example 285 (antibody, human IgG1, kappa, V domains shown, linker-toxophore on cysteine S) VH: QVELVESGGGLVQPGGSLRLSCAASGFTFSSYGMSWVRQAPGKGLEWVSGISSLGSTTYYADSVKGRFTISRDNSKNTLYLQMNSLRAEDTAVYYCARTGSPGTFMHGDHWGQGTLVTVSS VL: DIQMTQSPSSLSASVGDRVTITCRASQDINNYLSWYQQKPGKAPKLLIYGASNLQSGVPSRFSGSGSGTDFTLTISSLQPEDFAVYYCQQYYGRPTTFGQGTKVEIKR |
| 0.03 nM | 0.8 | – | Example 286 (antibody, human IgG1, kappa, V domains shown, linker-toxophore on cysteine S) VH: QVELVESGGGLVQPGGSLRLSCAASGFTFSSYGMSWVRQAPGKGLEWVSGISSLGSTTYYADSVKGRFTISRDNSKNTLYLQMNSLRAEDTAVYYCARTGSPGTFMHGDHWGQGTLVTVSS VL: DIQMTQSPSSLSASVGDRVTITCRASQDINNYLSWYQQKPGKAPKLLIYGASNLQSGVPSRFSGSGSGTDFTLTISSLQPEDFAVYYCQQYYGRPTTFGQGTKVEIKR |
| > 30 nM | 69 | – | Example 287 (antibody, human IgG1, kappa, V domains shown, linker-toxophore on cysteine S) VH: QVELVESGGGLVQPGGSLRLSCAASGFTFSSYGMSWVRQAPGKGLEWVSGISSLGSTTYYADSVKGRFTISRDNSKNTLYLQMNSLRAEDTAVYYCARTGSPGTFMHGDHWGQGTLVTVSS VL: DIQMTQSPSSLSASVGDRVTITCRASQDINNYLSWYQQKPGKAPKLLIYGASNLQSGVPSRFSGSGSGTDFTLTISSLQPEDFAVYYCQQYYGRPTTFGQGTKVEIKR |
| 39 nM | 12 | – | Example 288 (antibody, human IgG1, kappa, V domains shown, linker-toxophore on cysteine S) VH: QVELVESGGGLVQPGGSLRLSCAASGFTFSSYGMSWVRQAPGKGLEWVSGISSLGSTTYYADSVKGRFTISRDNSKNTLYLQMNSLRAEDTAVYYCARTGSPGTFMHGDHWGQGTLVTVSS VL: DIQMTQSPSSLSASVGDRVTITCRASQDINNYLSWYQQKPGKAPKLLIYGASNLQSGVPSRFSGSGSGTDFTLTISSLQPEDFAVYYCQQYYGRPTTFGQGTKVEIKR |
| 49 nM | 78 | – | Example 289 (antibody, human IgG1, kappa, V domains shown, linker-toxophore on cysteine S) VH: QVELVESGGGLVQPGGSLRLSCAASGFTFSSYGMSWVRQAPGKGLEWVSGISSLGSTTYYADSVKGRFTISRDNSKNTLYLQMNSLRAEDTAVYYCARTGSPGTFMHGDHWGQGTLVTVSS VL: DIQMTQSPSSLSASVGDRVTITCRASQDINNYLSWYQQKPGKAPKLLIYGASNLQSGVPSRFSGSGSGTDFTLTISSLQPEDFAVYYCQQYYGRPTTFGQGTKVEIKR |
| 115 nM | 1.9 | 84 nM | Example 290 (antibody, human IgG1, kappa, V domains shown, linker-toxophore on lysine NH) VH: QVELVESGGGLVQPGGSLRLSCAASGFTFSSYGMSWVRQAPGKGLEWVSGISSLGSTTYYADSVKGRFTISRDNSKNTLYLQMNSLRAEDTAVYYCARTGSPGTFMHGDHWGQGTLVTVSS VL: DIQMTQSPSSLSASVGDRVTITCRASQDINNYLSWYQQKPGKAPKLLIYGASNLQSGVPSRFSGSGSGTDFTLTISSLQPEDFAVYYCQQYYGRPTTFGQGTKVEIKR |
| 27 nM | 22 | – | Example 291 (antibody, human IgG1, kappa, V domains shown, linker-toxophore on cysteine S) VH: QVELVESGGGLVQPGGSLRLSCAASGFTFSSYGMSWVRQAPGKGLEWVSGISSLGSTTYYADSVKGRFTISRDNSKNTLYLQMNSLRAEDTAVYYCARTGSPGTFMHGDHWGQGTLVTVSS VL: DIQMTQSPSSLSASVGDRVTITCRASQDINNYLSWYQQKPGKAPKLLIYGASNLQSGVPSRFSGSGSGTDFTLTISSLQPEDFAVYYCQQYYGRPTTFGQGTKVEIKR |
| 223 nM | 35 | – | Example 292 (antibody, human IgG1, kappa, V domains shown, linker-toxophore on cysteine S) VH: QVELVESGGGLVQPGGSLRLSCAASGFTFSSYGMSWVRQAPGKGLEWVSGISSLGSTTYYADSVKGRFTISRDNSKNTLYLQMNSLRAEDTAVYYCARTGSPGTFMHGDHWGQGTLVTVSS VL: DIQMTQSPSSLSASVGDRVTITCRASQDINNYLSWYQQKPGKAPKLLIYGASNLQSGVPSRFSGSGSGTDFTLTISSLQPEDFAVYYCQQYYGRPTTFGQGTKVEIKR |
| 0.1 nM | < 0.1 | – | Example 293 (antibody, human IgG1, kappa, V domains shown, linker-toxophore on cysteine S) VH: QVELVESGGGLVQPGGSLRLSCAASGFTFSSYGMSWVRQAPGKGLEWVSGISSLGSTTYYADSVKGRFTISRDNSKNTLYLQMNSLRAEDTAVYYCARTGSPGTFMHGDHWGQGTLVTVSS VL: DIQMTQSPSSLSASVGDRVTITCRASQDINNYLSWYQQKPGKAPKLLIYGASNLQSGVPSRFSGSGSGTDFTLTISSLQPEDFAVYYCQQYYGRPTTFGQGTKVEIKR |
| 13.6 nM | 1 | 21.4 nM | Example 294 (antibody, human IgG1, kappa, V domains shown, linker-toxophore on cysteine S) VH: QVELVESGGGLVQPGGSLRLSCAASGFTFSSYGMSWVRQAPGKGLEWVSGISSLGSTTYYADSVKGRFTISRDNSKNTLYLQMNSLRAEDTAVYYCARTGSPGTFMHGDHWGQGTLVTVSS VL: DIQMTQSPSSLSASVGDRVTITCRASQDINNYLSWYQQKPGKAPKLLIYGASNLQSGVPSRFSGSGSGTDFTLTISSLQPEDFAVYYCQQYYGRPTTFGQGTKVEIKR |
| > 100 nM | 25 | 63 nM | Example 295 (antibody, human IgG1, kappa, V domains shown, linker-toxophore on cysteine S) VH: QVELVESGGGLVQPGGSLRLSCAASGFTFSSYGMSWVRQAPGKGLEWVSGISSLGSTTYYADSVKGRFTISRDNSKNTLYLQMNSLRAEDTAVYYCARTGSPGTFMHGDHWGQGTLVTVSS VL: DIQMTQSPSSLSASVGDRVTITCRASQDINNYLSWYQQKPGKAPKLLIYGASNLQSGVPSRFSGSGSGTDFTLTISSLQPEDFAVYYCQQYYGRPTTFGQGTKVEIKR |
| 0.4 nM | 0.6 | – | Example 296 (antibody, human IgG1, kappa, V domains shown, linker-toxophore on cysteine S) VH: QVELVESGGGLVQPGGSLRLSCAASGFTFSSYGMSWVRQAPGKGLEWVSGISSLGSTTYYADSVKGRFTISRDNSKNTLYLQMNSLRAEDTAVYYCARTGSPGTFMHGDHWGQGTLVTVSS VL: DIQMTQSPSSLSASVGDRVTITCRASQDINNYLSWYQQKPGKAPKLLIYGASNLQSGVPSRFSGSGSGTDFTLTISSLQPEDFAVYYCQQYYGRPTTFGQGTKVEIKR |
| < 0.01 nM | 0.02 | – | Example 297 (antibody, human IgG1, kappa, V domains shown, linker-toxophore on cysteine S) VH: QVELVESGGGLVQPGGSLRLSCAASGFTFSSYGMSWVRQAPGKGLEWVSGISSLGSTTYYADSVKGRFTISRDNSKNTLYLQMNSLRAEDTAVYYCARTGSPGTFMHGDHWGQGTLVTVSS VL: DIQMTQSPSSLSASVGDRVTITCRASQDINNYLSWYQQKPGKAPKLLIYGASNLQSGVPSRFSGSGSGTDFTLTISSLQPEDFAVYYCQQYYGRPTTFGQGTKVEIKR |
| 2.5 nM | 1.1 | 7.8 nM | Example 298 (antibody, human IgG1, kappa, V domains shown, linker-toxophore on cysteine S) VH: QVELVESGGGLVQPGGSLRLSCAASGFTFSSYGMSWVRQAPGKGLEWVSGISSLGSTTYYADSVKGRFTISRDNSKNTLYLQMNSLRAEDTAVYYCARTGSPGTFMHGDHWGQGTLVTVSS VL: DIQMTQSPSSLSASVGDRVTITCRASQDINNYLSWYQQKPGKAPKLLIYGASNLQSGVPSRFSGSGSGTDFTLTISSLQPEDFAVYYCQQYYGRPTTFGQGTKVEIKR |
| 4.1 nM | 0.8 | – | Example 299 (antibody, human IgG1, kappa, V domains shown, linker-toxophore on cysteine S) VH: QVELVESGGGLVQPGGSLRLSCAASGFTFSSYGMSWVRQAPGKGLEWVSGISSLGSTTYYADSVKGRFTISRDNSKNTLYLQMNSLRAEDTAVYYCARTGSPGTFMHGDHWGQGTLVTVSS VL: DIQMTQSPSSLSASVGDRVTITCRASQDINNYLSWYQQKPGKAPKLLIYGASNLQSGVPSRFSGSGSGTDFTLTISSLQPEDFAVYYCQQYYGRPTTFGQGTKVEIKR |
| 5 nM | 0.3 | – | Example 300 (antibody, human IgG1, kappa, V domains shown, linker-toxophore on cysteine S) VH: QVELVESGGGLVQPGGSLRLSCAASGFTFSSYGMSWVRQAPGKGLEWVSGISSLGSTTYYADSVKGRFTISRDNSKNTLYLQMNSLRAEDTAVYYCARTGSPGTFMHGDHWGQGTLVTVSS VL: DIQMTQSPSSLSASVGDRVTITCRASQDINNYLSWYQQKPGKAPKLLIYGASNLQSGVPSRFSGSGSGTDFTLTISSLQPEDFAVYYCQQYYGRPTTFGQGTKVEIKR |
